# Experimental data: patent publication US20220204580A1 (AstraZeneca / MedImmune, published 2022)
# Numbered stars: 1 amine (or outer) side, 2 acyl side, 3 side chain; on linkers, the order of the positions; unused ones are H or OH. Bridge positions count the residues as written; N and C are the ends. Square brackets hold non-standard residues; d marks the D form. Side chains are listed from the residue outwards. Ends that are not written are not given here. * marks the point of attachment. C18 diacid = O=C(O)CCCCCCCCCCCCCCCCC(=O)*; γGlu = O=C(O)[C@H](CCC(=O)[*:2])N[*:1]; Dab = NCC[C@H](N)C(=O)O; Aib = CC(C)(N)C(=O)O
# T1: rat amylin receptor (calcitonin receptor co-expressed with receptor activity modifying protein, RAMP3) (rat, UniProt P32214 25-516; Q9JJ73 23-147)
# T1 sequence (looked up) 1: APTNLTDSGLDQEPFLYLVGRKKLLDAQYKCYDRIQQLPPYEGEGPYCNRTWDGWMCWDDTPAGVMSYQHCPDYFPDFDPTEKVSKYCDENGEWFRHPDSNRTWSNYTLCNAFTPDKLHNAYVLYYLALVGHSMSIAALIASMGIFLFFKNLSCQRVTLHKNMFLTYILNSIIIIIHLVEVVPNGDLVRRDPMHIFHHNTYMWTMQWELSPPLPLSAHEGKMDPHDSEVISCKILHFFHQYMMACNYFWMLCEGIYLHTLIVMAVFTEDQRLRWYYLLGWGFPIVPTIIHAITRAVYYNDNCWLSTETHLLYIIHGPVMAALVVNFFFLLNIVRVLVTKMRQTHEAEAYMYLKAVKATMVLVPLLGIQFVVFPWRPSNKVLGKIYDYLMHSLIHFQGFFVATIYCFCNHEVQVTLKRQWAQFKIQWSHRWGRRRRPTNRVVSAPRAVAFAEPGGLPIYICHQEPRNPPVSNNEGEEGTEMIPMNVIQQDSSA
# T1 sequence (looked up) 2: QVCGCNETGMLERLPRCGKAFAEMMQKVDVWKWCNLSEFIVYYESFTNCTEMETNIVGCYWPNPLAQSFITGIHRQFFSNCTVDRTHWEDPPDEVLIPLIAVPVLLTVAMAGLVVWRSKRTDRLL
# T2: rat calcitonin receptor (rat, UniProt P32214 25-516)
# T2 sequence (looked up): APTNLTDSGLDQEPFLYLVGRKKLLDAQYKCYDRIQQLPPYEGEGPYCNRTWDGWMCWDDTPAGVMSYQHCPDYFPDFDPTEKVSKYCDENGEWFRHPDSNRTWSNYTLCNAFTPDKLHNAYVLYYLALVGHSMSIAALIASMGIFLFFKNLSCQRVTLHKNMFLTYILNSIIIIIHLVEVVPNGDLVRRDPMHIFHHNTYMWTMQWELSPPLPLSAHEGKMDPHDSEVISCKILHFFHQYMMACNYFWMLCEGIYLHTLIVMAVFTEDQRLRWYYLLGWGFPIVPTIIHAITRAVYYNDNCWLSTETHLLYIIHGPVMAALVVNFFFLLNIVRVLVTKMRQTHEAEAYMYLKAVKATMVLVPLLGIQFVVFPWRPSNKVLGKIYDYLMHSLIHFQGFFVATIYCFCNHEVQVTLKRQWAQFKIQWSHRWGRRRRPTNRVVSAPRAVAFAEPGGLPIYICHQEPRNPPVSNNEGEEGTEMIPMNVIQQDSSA
# T3: human calcitonin receptor (human, UniProt P30988 25-474)
# T3 sequence (looked up): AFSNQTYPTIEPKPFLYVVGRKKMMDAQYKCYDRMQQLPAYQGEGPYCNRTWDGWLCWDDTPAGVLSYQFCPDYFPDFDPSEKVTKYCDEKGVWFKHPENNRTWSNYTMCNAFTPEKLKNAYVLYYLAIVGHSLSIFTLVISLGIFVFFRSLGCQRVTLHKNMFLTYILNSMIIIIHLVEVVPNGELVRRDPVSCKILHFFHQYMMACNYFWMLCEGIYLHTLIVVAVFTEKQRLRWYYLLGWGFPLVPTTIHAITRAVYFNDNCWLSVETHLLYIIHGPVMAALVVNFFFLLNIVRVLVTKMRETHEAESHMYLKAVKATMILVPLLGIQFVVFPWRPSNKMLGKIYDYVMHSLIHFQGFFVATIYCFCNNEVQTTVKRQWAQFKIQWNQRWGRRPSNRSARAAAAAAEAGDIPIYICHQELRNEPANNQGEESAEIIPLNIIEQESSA
# T4: human amylin receptor (calcitonin receptor co-expressed with receptor activity modifying protein, RAMP3) (human, UniProt P30988 25-474; O60896 24-148)
# T4 sequence (looked up) 1: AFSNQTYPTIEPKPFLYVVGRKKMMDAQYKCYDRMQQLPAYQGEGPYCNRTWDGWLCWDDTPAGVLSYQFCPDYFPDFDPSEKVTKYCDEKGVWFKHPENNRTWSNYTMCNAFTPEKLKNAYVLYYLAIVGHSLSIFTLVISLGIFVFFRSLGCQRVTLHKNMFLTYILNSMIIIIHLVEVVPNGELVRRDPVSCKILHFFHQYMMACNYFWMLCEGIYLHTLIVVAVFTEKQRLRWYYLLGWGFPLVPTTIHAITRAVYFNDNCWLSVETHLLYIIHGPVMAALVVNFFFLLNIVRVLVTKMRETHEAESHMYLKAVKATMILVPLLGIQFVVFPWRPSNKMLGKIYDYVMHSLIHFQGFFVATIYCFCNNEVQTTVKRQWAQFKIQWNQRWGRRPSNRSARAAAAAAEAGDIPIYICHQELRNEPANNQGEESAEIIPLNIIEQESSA
# T4 sequence (looked up) 2: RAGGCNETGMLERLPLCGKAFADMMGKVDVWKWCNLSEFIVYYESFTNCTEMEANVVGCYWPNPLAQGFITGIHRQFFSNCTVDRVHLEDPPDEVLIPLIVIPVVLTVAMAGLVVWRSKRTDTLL
# What was measured:
# Test in all cases: cell-based or functional assay
# [1] = target: T1, rat amylin receptor (calcitonin …)
# rat calcitonin receptor = target: T2, rat calcitonin receptor
# [2] = target: T3, human calcitonin receptor
# [3] = target: T4, human amylin receptor (calcitonin …)
EC50 (cAMP production) [1] [nM],EC50 (cAMP production) (rat calcitonin receptor) [nM],EC50 (cAMP production) [2] [nM],EC50 (cAMP production) [3] [nM],Ratio (EC50 hCTR / EC50 hAMYR3) [3],Binder
0.0256,19.9,20.2,0.375,54,K([γGlu-γGlu-C18 diacid])CNTATCATQRLANFLVHSS[Dab]NFPAILSPTNVGSNTY-NH2 (disulfide 2-7; N-terminus assumed; SMILES CC[C@H](C)[C@H](NC(=O)[C@H](C)NC(=O)[C@@H]1CCCN1C(=O)[C@H](Cc1ccccc1)NC(=O)[C@H](CC(N)=O)NC(=O)[C@H](CCN)NC(=O)[C@H](CO)NC(=O)[C@H](CO)NC(=O)[C@H](Cc1c[nH]cn1)NC(=O)[C@@H](NC(=O)[C@H](CC(C)C)NC(=O)[C@H](Cc1ccccc1)NC(=O)[C@H](CC(N)=O)NC(=O)[C@H](C)NC(=O)[C@H](CC(C)C)NC(=O)[C@H](CCCNC(=N)N)NC(=O)[C@H](CCC(N)=O)NC(=O)[C@@H](NC(=O)[C@H](C)NC(=O)[C@@H]1CSSC[C@H](NC(=O)[C@@H](N)CCCCNC(=O)CC[C@H](NC(=O)CC[C@H](NC(=O)CCCCCCCCCCCCCCCCC(=O)O)C(=O)O)C(=O)O)C(=O)N[C@@H](CC(N)=O)C(=O)N[C@@H]([C@@H](C)O)C(=O)N[C@@H](C)C(=O)N[C@@H]([C@@H](C)O)C(=O)N1)[C@@H](C)O)C(C)C)C(=O)N[C@@H](CC(C)C)C(=O)N[C@@H](CO)C(=O)N1CCC[C@H]1C(=O)N[C@H](C(=O)N[C@@H](CC(N)=O)C(=O)N[C@H](C(=O)NCC(=O)N[C@@H](CO)C(=O)N[C@@H](CC(N)=O)C(=O)N[C@H](C(=O)N[C@@H](Cc1ccc(O)cc1)C(N)=O)[C@@H](C)O)C(C)C)[C@@H](C)O) [Peptide 8 (SEQ ID NO: 8)]
0.0178,9.72,13.5,0.32,42,K([γGlu-γGlu-C18 diacid])CNTATCATQRLANFLVHSS[Aib]NFPAILSPTNVGSNTY-NH2 (disulfide 2-7; N-terminus assumed; SMILES CC[C@H](C)[C@H](NC(=O)[C@H](C)NC(=O)[C@@H]1CCCN1C(=O)[C@H](Cc1ccccc1)NC(=O)[C@H](CC(N)=O)NC(=O)C(C)(C)NC(=O)[C@H](CO)NC(=O)[C@H](CO)NC(=O)[C@H](Cc1c[nH]cn1)NC(=O)[C@@H](NC(=O)[C@H](CC(C)C)NC(=O)[C@H](Cc1ccccc1)NC(=O)[C@H](CC(N)=O)NC(=O)[C@H](C)NC(=O)[C@H](CC(C)C)NC(=O)[C@H](CCCNC(=N)N)NC(=O)[C@H](CCC(N)=O)NC(=O)[C@@H](NC(=O)[C@H](C)NC(=O)[C@@H]1CSSC[C@H](NC(=O)[C@@H](N)CCCCNC(=O)CC[C@H](NC(=O)CC[C@H](NC(=O)CCCCCCCCCCCCCCCCC(=O)O)C(=O)O)C(=O)O)C(=O)N[C@@H](CC(N)=O)C(=O)N[C@@H]([C@@H](C)O)C(=O)N[C@@H](C)C(=O)N[C@@H]([C@@H](C)O)C(=O)N1)[C@@H](C)O)C(C)C)C(=O)N[C@@H](CC(C)C)C(=O)N[C@@H](CO)C(=O)N1CCC[C@H]1C(=O)N[C@H](C(=O)N[C@@H](CC(N)=O)C(=O)N[C@H](C(=O)NCC(=O)N[C@@H](CO)C(=O)N[C@@H](CC(N)=O)C(=O)N[C@H](C(=O)N[C@@H](Cc1ccc(O)cc1)C(N)=O)[C@@H](C)O)C(C)C)[C@@H](C)O) [Peptide 9 (SEQ ID NO: 9)]
0.0048,2.43,5.27,0.126,42,K([γGlu-C18 diacid])CNTATCATQRLANFLRHSS[Aib]NFGPILPPTNVGSNTY-NH2 (disulfide 2-7; N-terminus assumed; SMILES CC[C@H](C)[C@H](NC(=O)[C@@H]1CCCN1C(=O)CNC(=O)[C@H](Cc1ccccc1)NC(=O)[C@H](CC(N)=O)NC(=O)C(C)(C)NC(=O)[C@H](CO)NC(=O)[C@H](CO)NC(=O)[C@H](Cc1c[nH]cn1)NC(=O)[C@H](CCCNC(=N)N)NC(=O)[C@H](CC(C)C)NC(=O)[C@H](Cc1ccccc1)NC(=O)[C@H](CC(N)=O)NC(=O)[C@H](C)NC(=O)[C@H](CC(C)C)NC(=O)[C@H](CCCNC(=N)N)NC(=O)[C@H](CCC(N)=O)NC(=O)[C@@H](NC(=O)[C@H](C)NC(=O)[C@@H]1CSSC[C@H](NC(=O)[C@@H](N)CCCCNC(=O)CC[C@H](NC(=O)CCCCCCCCCCCCCCCCC(=O)O)C(=O)O)C(=O)N[C@@H](CC(N)=O)C(=O)N[C@@H]([C@@H](C)O)C(=O)N[C@@H](C)C(=O)N[C@@H]([C@@H](C)O)C(=O)N1)[C@@H](C)O)C(=O)N[C@@H](CC(C)C)C(=O)N1CCC[C@H]1C(=O)N1CCC[C@H]1C(=O)N[C@H](C(=O)N[C@@H](CC(N)=O)C(=O)N[C@H](C(=O)NCC(=O)N[C@@H](CO)C(=O)N[C@@H](CC(N)=O)C(=O)N[C@H](C(=O)N[C@@H](Cc1ccc(O)cc1)C(N)=O)[C@@H](C)O)C(C)C)[C@@H](C)O) [Peptide 48 (SEQ ID NO: 48)]
